Test results reported in patent US20250289894A1 (MORPHIC THERAPEUTIC, published 2025).
Where a chain is given by its changes, count along the chain named. Like-named read-outs stand apart in the source and are kept apart here.

B1: Ab8 (antibody, V domains shown)
VH: QVPLQQSGPQLVRPGASVKISCKASGYSFTRYWMHWVKQRPGQGLDWIGKIDPSDSETRLNQEFRDKATLTVDKSSSTAYLQLSSPTSEDSAVYYCARGGYFGEGWYFDVWGAGTTVTVSS
VL: DVVMTQIPLSLPVSLGDQASISCRSSQSLVHRNGNTYLHWYLQKPGQSPKLLIYKVSNRFSGVPDRFSGSGSGTDFTLKISRVEAEDLGVYFCSQSTHVPWTFGGGTKLEIK
notes: Mouse anti-α7β1 antibody (hybridoma, α7 knock-out mouse); also called AbS
B2: Ab2 (antibody, V domains shown)
VH: EVQLVESGGGLVKPGGSLRLSCAASGFTFSSYTMNWVRQAPGKGLEWVSSISIVGNYIYYADSLKGRFTISRDNAKNSLYLQMNSLRAEDTAVYYCARRKWEHDAFDIWGQGTMVTVSS
VL: SSELTQDPAVSVALGQTVRITCQGDSLRSYYASWYQQKPGQAPVLVIYGKNNRPSGIPDRFSGSSSGNTASLTITGAQAEDEADFYCTSRDNSGNHVVFGGGTKLTVL
notes: Human anti-α7β1 antibody (hybridoma, human transgenic mouse); Ab28 and Ab29 are full chains with the same CDRs

Columns and labels:
Cynomolgus Monkey α7β1 = Cynomolgus Monkey α7β1 (cynomolgus monkey, UniProt A0A2K5UNI0 34-1181; H9FU31 21-798); test: cell-based or functional assay
Mouse α7β1 [1] = target: T1, Mouse α7β1 (mouse, UniProt Q61738 34-1179; P09055 21-798); test: cell-based or functional assay
Mouse α7β1 [2] = target: T1, Mouse α7β1; test: cell binding, mouse α7β1 cells, with Mn-BOP
Human α7β1 (human) [3] = target: Human α7β1 (human) (UniProt Q13683); test: cell-based or functional assay
[4] = target: Mouse α7β1 Ecto Domain (mouse) (UniProt Q61738); test: cell-based or functional assay
[5] = target: Human α7β1 Ecto Domain (human) (UniProt Q13683); test: cell-based or functional assay
[6] = target: Mouse α7β1 Ecto Domain (mouse) (UniProt Q61738); test: SPR
[7] = target: Human α7β1 Ecto Domain (human) (UniProt Q13683); test: SPR
Human α7β1 (human) [8] = target: Human α7β1 (human) (UniProt Q13683); test: cell binding, DMD myoblast cells, with Mn-BOP
[9] = target: T2, Cynomolgus Monkey α7β1 Ecto Domain (cynomolgus monkey, UniProt A0A2K5UNI0 34-1082; H9FU31 21-728); test: SPR
T2 construct: extracellular domain; Heterodimer

Mouse Leg α7 = target: T3, Mouse Leg α7 (mouse, UniProt Q61738 679-1076, limits assumed); test: SPR
T3 construct: domain: Leg α7
T3 sequence (looked up): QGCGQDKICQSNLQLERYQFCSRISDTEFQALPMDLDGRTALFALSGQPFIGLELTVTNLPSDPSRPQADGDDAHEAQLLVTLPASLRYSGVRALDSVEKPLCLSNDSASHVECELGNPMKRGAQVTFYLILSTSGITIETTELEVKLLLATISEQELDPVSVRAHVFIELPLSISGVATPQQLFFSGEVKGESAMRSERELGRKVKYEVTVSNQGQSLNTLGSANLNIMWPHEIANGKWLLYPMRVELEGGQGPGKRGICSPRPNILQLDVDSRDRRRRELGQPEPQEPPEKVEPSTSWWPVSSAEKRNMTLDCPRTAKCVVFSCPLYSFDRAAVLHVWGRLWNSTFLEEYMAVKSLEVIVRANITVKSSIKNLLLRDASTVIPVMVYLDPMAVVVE

Cynomolgus Monkey Leg α7 = target: T4, Cynomolgus Monkey Leg α7 (cynomolgus monkey, UniProt A0A2K5UNI0 679-1078); test: SPR
T4 construct: domain: Leg α7
T4 sequence: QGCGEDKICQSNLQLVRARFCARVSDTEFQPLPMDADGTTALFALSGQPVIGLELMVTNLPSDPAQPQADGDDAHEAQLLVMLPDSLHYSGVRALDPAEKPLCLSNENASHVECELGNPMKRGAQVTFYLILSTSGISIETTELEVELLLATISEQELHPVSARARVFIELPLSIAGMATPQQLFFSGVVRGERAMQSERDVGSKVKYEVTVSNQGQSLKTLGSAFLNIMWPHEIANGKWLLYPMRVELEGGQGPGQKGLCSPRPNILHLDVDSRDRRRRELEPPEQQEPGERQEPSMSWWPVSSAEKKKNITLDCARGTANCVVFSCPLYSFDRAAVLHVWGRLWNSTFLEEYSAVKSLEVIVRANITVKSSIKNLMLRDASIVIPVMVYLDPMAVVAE

Human Leg α7 = target: T5, Human Leg α7 (human, UniProt Q13683 679-1078); test: SPR
T5 construct: also called human α7 leg; leg domain of human α7
T5 sequence: T4 sequence with A22T, A36V, T180I, K220R, R246Q, I384T

Human α7β1 (human) [10] = target: Human α7β1 (human) (UniProt Q13683); test: cell-based or functional assay; remark: listed apart in the source
human α7 calf-1 protein = target: T6, human α7 calf-1 protein (human, UniProt Q13683 688-848); test: binding ELISA, panel 'Human a7 Calf1 vs Ab2'
T6 construct: also called Calf-1 domain
T6 sequence: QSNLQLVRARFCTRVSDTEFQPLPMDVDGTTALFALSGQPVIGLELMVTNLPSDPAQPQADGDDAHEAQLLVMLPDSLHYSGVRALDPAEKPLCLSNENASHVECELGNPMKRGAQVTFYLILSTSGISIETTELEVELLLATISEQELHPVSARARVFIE

T1 sequence (Q61738 34-1179, chain 1 of 2): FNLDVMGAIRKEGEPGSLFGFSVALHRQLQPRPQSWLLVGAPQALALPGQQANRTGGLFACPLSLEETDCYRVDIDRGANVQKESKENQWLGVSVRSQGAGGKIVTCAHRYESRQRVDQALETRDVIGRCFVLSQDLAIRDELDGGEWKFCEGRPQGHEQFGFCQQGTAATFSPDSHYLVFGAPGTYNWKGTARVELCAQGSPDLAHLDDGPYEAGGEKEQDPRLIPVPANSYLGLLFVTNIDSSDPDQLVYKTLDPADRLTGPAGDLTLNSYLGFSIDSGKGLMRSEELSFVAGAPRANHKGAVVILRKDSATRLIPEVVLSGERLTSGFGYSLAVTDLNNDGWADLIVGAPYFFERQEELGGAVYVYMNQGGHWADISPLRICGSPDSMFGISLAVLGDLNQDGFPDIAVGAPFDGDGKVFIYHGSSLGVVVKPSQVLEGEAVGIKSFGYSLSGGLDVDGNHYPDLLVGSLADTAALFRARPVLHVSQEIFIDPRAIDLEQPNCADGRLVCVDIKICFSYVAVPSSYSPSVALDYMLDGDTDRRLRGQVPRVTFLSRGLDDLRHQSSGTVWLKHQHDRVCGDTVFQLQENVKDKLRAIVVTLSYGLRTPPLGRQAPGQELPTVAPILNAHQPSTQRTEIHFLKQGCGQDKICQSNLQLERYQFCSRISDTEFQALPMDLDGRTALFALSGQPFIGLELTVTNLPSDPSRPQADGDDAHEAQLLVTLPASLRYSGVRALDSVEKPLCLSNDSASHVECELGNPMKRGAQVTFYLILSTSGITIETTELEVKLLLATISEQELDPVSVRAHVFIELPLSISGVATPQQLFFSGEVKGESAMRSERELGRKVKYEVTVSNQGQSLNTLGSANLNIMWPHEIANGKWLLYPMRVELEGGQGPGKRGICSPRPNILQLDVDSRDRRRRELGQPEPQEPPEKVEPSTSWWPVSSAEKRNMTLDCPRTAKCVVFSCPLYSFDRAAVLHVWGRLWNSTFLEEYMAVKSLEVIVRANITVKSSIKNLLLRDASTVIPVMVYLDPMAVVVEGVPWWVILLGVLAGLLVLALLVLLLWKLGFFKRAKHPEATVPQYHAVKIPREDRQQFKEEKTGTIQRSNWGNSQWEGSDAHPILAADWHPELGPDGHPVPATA
T1 sequence (P09055 21-798, chain 2 of 2): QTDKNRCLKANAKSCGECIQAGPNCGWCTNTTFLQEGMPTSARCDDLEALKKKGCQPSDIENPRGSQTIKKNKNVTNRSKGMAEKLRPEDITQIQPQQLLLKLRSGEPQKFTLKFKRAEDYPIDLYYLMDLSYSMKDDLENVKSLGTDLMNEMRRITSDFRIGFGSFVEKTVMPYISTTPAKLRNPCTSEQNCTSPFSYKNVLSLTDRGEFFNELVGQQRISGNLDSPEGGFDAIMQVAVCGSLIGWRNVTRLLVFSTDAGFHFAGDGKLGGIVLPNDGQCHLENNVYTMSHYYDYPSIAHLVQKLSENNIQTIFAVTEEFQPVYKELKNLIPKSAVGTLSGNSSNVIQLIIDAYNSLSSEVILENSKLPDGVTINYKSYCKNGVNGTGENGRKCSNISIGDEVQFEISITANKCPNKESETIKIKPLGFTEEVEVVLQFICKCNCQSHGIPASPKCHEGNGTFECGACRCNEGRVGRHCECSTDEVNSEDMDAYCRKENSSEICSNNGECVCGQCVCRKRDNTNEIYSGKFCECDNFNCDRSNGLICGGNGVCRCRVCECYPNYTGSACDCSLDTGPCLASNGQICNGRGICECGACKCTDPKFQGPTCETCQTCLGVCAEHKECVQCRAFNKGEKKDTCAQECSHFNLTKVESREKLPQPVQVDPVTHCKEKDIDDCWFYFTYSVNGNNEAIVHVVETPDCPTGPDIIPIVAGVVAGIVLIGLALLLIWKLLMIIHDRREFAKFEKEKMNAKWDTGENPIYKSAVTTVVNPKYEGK

Binder | EC50 (nM), Cell Adhesion Assay (Cynomolgus Monkey α7β1) | Emax (%*), Cell Adhesion Assay (Cynomolgus Monkey α7β1) | EC50 (nM), ECIS, DMD-1 myoblast cells (Human α7β1 (human) [3]) | EC50 (nM), ECIS, DMD-2 myoblast cells (Human α7β1 (human) [3]) | EC50 (nM), ECIS, Non-DMD myoblast cells (Human α7β1 (human) [3]) | Emax (% of RefAb1), ECIS, DMD-1 myoblast cells (Human α7β1 (human) [3]) | Emax (% of RefAb1), ECIS, DMD-2 myoblast cells (Human α7β1 (human) [3]) | Emax (% of RefAb1), ECIS, Non-DMD myoblast cells (Human α7β1 (human) [3]) | Emax (%*), Cell Adhesion Assay (Human α7β1 (human) [3]) | Emax (%*), Solid Phase Assay [5] | Kd [7] | EC50 (Human α7β1 (human) [8]) | Kd [9] | Kd (Cynomolgus Monkey Leg α7) | Kd (Human Leg α7) | also measured
B1 | 1.69 nM | 102% | 10 nM | 32 nM | 41.6 nM | 264 % of RefAb1 | 130 % of RefAb1 | 100 % of RefAb1 | 117% | 89% | 184 nM | 32.6 nM | 225 nM | 32.3 nM | 25 nM | EC50 (nM), Cell Adhesion Assay (Mouse α7β1 [1]): 3.82 nM; Emax (%*), Cell Adhesion Assay (Mouse α7β1 [1]): 144%; EC50 (Mouse α7β1 [2]): 22.6 nM; EC50 (nM), Cell Adhesion Assay (K562 cells expressing α7β1 on laminin-221) (Human α7β1 (human) [3]): 3.94 nM; EC50 (nM), Solid Phase Assay [4]: 1.55 nM; Emax (%*), Solid Phase Assay [4]: 148%; EC50 (nM), Solid Phase Assay (6xHis α7β1 ectodomain on coated laminin-221) [5]: 0.77 nM; Kd [6]: 5.46 nM; Kd (Mouse Leg α7): 1.42 nM
B2 | 3.31 nM | 115% | 14.8 nM | 41.1 nM | 23.3 nM | 289 % of RefAb1 | 240 % of RefAb1 | 124 % of RefAb1 | 122% | 97% | 5.69 nM | 41.1 nM | 23 nM | 19.4 nM | 1.58 nM | EC50 (nm), a7b1 activation assay (Human α7β1 (human) [10]): 2.8 nM; EC50 (ug/mL), a7b1 activation assay (Human α7β1 (human) [10]): 0.42 µg/mL; Emax (% TS2/16), a7b1 activation assay (Human α7β1 (human) [10]): 100 % TS2/16; Emax (F.C.), a7b1 activation assay (Human α7β1 (human) [10]): 2.09 F.C.; binding result (human α7 calf-1 protein): no binding; EC50 (nM), Cell Adhesion Assay (Human α7β1 (human) [3]): 5.1 nM; EC50 (nM), a7b1 activation assay (Human α7β1 (human) [3]): 2.91 nM; EC50 (ug/mL), a7b1 activation assay (Human α7β1 (human) [3]): 0.44 µg/mL; Emax (% TS2/16), a7b1 activation assay (Human α7β1 (human) [3]): 117 % TS2/16; Emax (F.C.), a7b1 activation assay (Human α7β1 (human) [3]): 2.75 F.C.; EC50 (nM), Solid Phase Assay [5]: 0.4 nM; binding result (Mouse Leg α7): no binding
